B1: Tissue-type plasminogen activator, P00750 (parent)
chain: MDAMKRGLCCVLLLCGAVFVSPSQEIHARFRRGARSYQVICRDEKTQMIYQQHQSWLRPVLRSNRVEYCWCNSGRAQCHSVPVKSCSEPRCFNGGTCQQALYFSDFVCQCPEGFAGKCCEIDTRATCYEDQGISYRGTWSTAESGAECTNWNSSALAQKPYSGRRPDAIRLGLGNHNYCRNPDRDSKPWCYVFKAGKYSSEFCSTPACSEGNSDCYFGNGSAYRGTHSLTESGASCLPWNSMILIGKVYTAQNPSAQALGLGKHNYCRNPDGDAKPWCHVLKNRRLTWEYCDVPSCSTCGLRQYSQPQFRIKGGLFADIASHPWQAAIFAKHRRSPGERFLCGGILISSCWILSAAHCFQERFPPHHLTVILGRTYRVVPGEEEQKFEVEKYIVHKEFDDDTYDNDIALLQLKSDSSRCAQESSVVRTVCLPPADLQLPDWTECELSGYGKHEALSPFYSERLKEAHVRLYPSSRCTSQHLLNRTVTDNMLCAGDTRSGGPQANLHDACQGDSGGPLVCLNDGRMTLVGIISWGLGCGQKDVPGVYTKVTNYLDWIRDNMRP

From FireProtDB (doi:10.1021/bi00178a007) come the findings set out here.

In this data set the parent is B1. As to conditions: Homo sapiens; pH 8; Thermal; DSC; Tris - Oac/100mM NaOAc 50 mM; transition: 2; structure 1PML; whole UniProt chain shown.
Turning to Y290F, the Tm (commonly the temperature at which the thermal transition is half complete) stood at 81.5 °C and the “change of melting temperature, mutant - wild type (higher = more stable)” value came out at 14.8 °C.
